Test results taken from US10563220B2, “Compositions and methods for efficient targeting of transgenes” (priority 2015, dated 2020).

Legend:
knockout E. coli strain = format: cell-based; settings: LB medium, acifluorfen 1 mM, flumioxazin 0.5 mM, lactofen 0.5 mM, fomesafen 1 mM, S-3100 100 μM
[1] = tested on: R1 transgenic cotton plants; assay: R1 cotton greenhouse dicamba injury; settings: dicamba 1120 g ai/ha at V4; rated 9 days after treatment; DMO SEQ ID NO:18
Description: Ten R1 seeds per event from 10 events for each construct and seed from DP393 cotton was planted to evaluate crop tolerance to post-emergence application of dicamba. Dicamba (Clarity) was applied at the V4 stage at 1120 g ai/ha. Crop injury percent ratings were taken 9 days after the treatment.

[2] = tested on: R1 transgenic soybean plants; assay: R1 soybean greenhouse dicamba injury; settings: dicamba 1120 g ai/ha at V4; rated 10 days after treatment; DMO SEQ ID NO:18
Description: Transgenic soybean plants were generated with two DNA constructs that were identical except for the APG6 CTP. The first DNA construct had APG6 (SEQ ID NO:1) operably linked to DMO (SEQ ID NO:18). The second DNA construct had the optimized APG6 (SEQ ID NO:2) operably linked to DMO (SEQ ID NO:18). Each DNA construct was used to transform A3555 soybean by Agrobacterium mediated transformation methods. Following transformation, R0 transgenic plants containing a single copy of the transgene were identified by PCR assay. Single-copy R0 plants were grown in greenhouse, and R1 seed was harvested. Ten R1 seeds per event for 4 events generated using each of the two DNA constructs and AG3555 seed was planted for evaluation of crop tolerance to post-emergence dicamba treatment under standard greenhouse growth conditions. Dicamba (Clarity) was applied at the V4 stage at 1120 g ai/ha. Crop injury ratings were taken 10 days after the treatment.

[3] = tested on: transgenic Brassica napus plants; assay: Dicamba tolerance in R0 Brassica napus, greenhouse; settings: R0 plants with one copy with vector backbone or two copies, tolerant = injury 20% or less, 21 days
Method: Brassica napus variety 65037 Restorer line was used for Agrobacterium-mediated transformation and R0 plants were grown in the greenhouse.
Dicamba tolerance was assessed using R0 plants with one copy of transgene with vector backbone or two copies of transgene. Dicamba tolerance was designated as dicamba injury of 20% or less under greenhouse conditions.
Dicamba tolerance was assessed on R0 plants with a one copy of the transgene. Plants were sprayed in the greenhouse with dicamba (Clarity) at 1 lb ae/acre (2× rate), and dicamba tolerance was determined 14 to 21 days later.

[4] = tested on: transgenic single-copy R0 soybean plants; assay: S-3100 efficacy evaluation in R0 soybean; settings: PPO H_N90; 20 g ai/ha S-3100 at about V3; 14 days after treatment
Description: Transgenic single-copy R0 plants, each representing a unique event, were sprayed in the greenhouse with the herbicide treatment 20 g ai/ha S-3100 applied at approximately the V3 stage. Injury ratings were taken 14 days after treatment as the number that were deemed highly tolerant (≤10% injury) or tolerant (≤20% injury).

[5] = tested on: R0 transgenic maize plants; assay: CTP-PPO herbicide tolerance evaluation in R0 transgenic maize (S-3100); format: in vivo
Method: R0 plants each containing a unique transformation event were sprayed with 40 g ai/ha or 80 g ai/ha of S-3100 at approximately the V5 growth stage and injury ratings were taken 4-7 days after treatment. The number of plants with ≤10% injury (highly tolerant) or ≤20% injury (tolerant) of the total number of sprayed plants was recorded. Plants that were determined to be single-copy events and that passed spray at ≤20% injury were advanced to selfing and outcrossing.

[6] = construct configuration 17, PPO H_N40, S-3100 80 g ai/ha
[7] = construct configuration 17, PPO H_N90, S-3100 40 g ai/ha
[8] = construct configuration 18, PPO H_N40, S-3100 80 g ai/ha
[9] = construct configuration 19, PPO H_N40, S-3100 80 g ai/ha

B1: WH_PPO: protoporphyrinogen oxidase from Amaranthus tuberculatus (waterhemp), SEQ ID NO:60 (protein, listed as Amaranthus tuberculatus)
chain: MGNISEREEPTSAKRVAVVGAGVSGLAAAYKLKSHGLSVTLFEADSRAGGKLKTVKKDGFIWDEGANTMTESEAEVSSLIDDLGLREKQQLPISQNKRYIARDGLPVLLPSNPAALLTSNILSAKSKLQIMLEPFLWRKHNATELSDEHVQESVGEFFERHFGKEFVDYVIDPFVAGTCGGDPQSLSMHHTFPEVWNIEKRFGSVFAGLIQSTLLSKKEKGGENASIKKPRVRGSFSFQGGMQTLVDTMCKQLGEDELKLQCEVLSLSYNQKGIPSLGNWSVSSMSNNTSEDQSYDAVVVTAPIRNVKEMKIMKFGNPFSLDFIPEVTYVPLSVMITAFKKDKVKRPLEGFGVLIPSKEQHNGLKTLGTLFSSMMFPDRAPSDMCLFTTFVGGSRNRKLANASTDELKQIVSSDLQQLLGTEDEPSFVNHLFWSNAFPLYGHNYDSVLRAIDKMEKDLPGFFYAGNHKGGLSVGKAMASGCKAAELVISYLDSHIYVKMDEKTA
growth of knockout E. coli strain expressing the PPO in the presence of a PPO herbicide (knockout E. coli strain): sensitive

B2: APG6: Arabidopsis thaliana albino and pale green (APG6) chloroplast transit peptide, SEQ ID NO:1, tested linked to DMO or PPO (protein, listed as Arabidopsis thalinana)
chain: MATATTTATAAFSGVVSVGTETRRIYSFSHLQPSAAFPAKPSSFKSLKLKQSARLTRRLDHRPFVVRC
dicamba % Injury, V4 stage [1]: 2.6% | Dicamba Injury, V4 stage [2]: 3.6% | 2X Tolerant events ([3]; dicamba 1 lb ae/acre): 7/14 | 4X Tolerant events ([3]; dicamba 2 lb ae/acre): 6/18 | ≤10% injury (events of total, highly tolerant) [4]: 3/14 | ≤10% injury (percent of unique events) [4]: 21.4% | ≤20% injury (events of total, tolerant) [4]: 8/14 | ≤20% injury (percent of unique events) [4]: 57.1% | ≤10% injury (percent of plants) [5, 6]: (37.5%) | ≤10% injury (plants of total sprayed) [5, 6]: 42/112 | ≤20% injury (percent of plants) [5, 6]: (58%) | ≤20% injury (plants of total sprayed) [5, 6]: 65/112 | ≤10% injury (percent of plants) [5, 7]: (49.1%) | ≤10% injury (plants of total sprayed) [5, 7]: 55/112 | ≤20% injury (percent of plants) [5, 7]: 56.3%) | ≤20% injury (plants of total sprayed) [5, 7]: 63/112 | ≤10% injury (percent of plants) [5, 8]: (40.2%) | ≤10% injury (plants of total sprayed) [5, 8]: 45/112 | ≤20% injury (percent of plants) [5, 8]: (58.9%) | ≤20% injury (plants of total sprayed) [5, 8]: 66/112 | ≤10% injury (percent of plants) [5, 9]: (21.4%) | ≤10% injury (plants of total sprayed) [5, 9]: 12/56 | ≤20% injury (percent of plants) [5, 9]: (41.1%) | ≤20% injury (plants of total sprayed) [5, 9]: 23/56
